In the data set the test system is Escherichia coli TOP10. Kind of data set: shrunken log2 fold change of peptide-encoding DNA abundance (4.5 h post-induction vs induction); higher = less antimicrobial activity (less host growth inhibition). The settings on record: time post-induction: 4.5 h; library: site-saturation at positions 5, 18, 19, 20.
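Also: peptides expressed intracellularly from a pBAD plasmid library in pooled LB shake-flask culture, induced with 0.3% L-arabinose, DNA abundance read by NGS, three biological replicates, DESeq2 with apeglm shrinkage.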

RRIRKRPPRLPRPRPRPDPYPRP: the “shrunken log2 fold change” value is -0.0561.
The same measure for RRIRIRPPRLPRPRPRPETEPRP: 0.0848; for RRIRYRPPRLPRPRPRPRHEPRP: -0.802.
The same measure for RRIRERPPRLPRPRPRPFFKPRP: -0.37; for RRIRNRPPRLPRPRPRPWIQPRP: -0.209; for RRIRPRPPRLPRPRPRPGHVPRP: 0.564.
The same measure for RRIRQRPPRLPRPRPRPCDSPRP: -0.0167; for RRIRPRPPRLPRPRPRPNSFPRP: -0.251.
As to RRIRERPPRLPRPRPRPPCLPRP, the “shrunken log2 fold change” value was -0.579.
The same measure for RRIRFRPPRLPRPRPRPNLYPRP: -0.716.
For the sequence RRIRVRPPRLPRPRPRPEPLPRP, the “shrunken log2 fold change” value was found to be 0.204.
The same measure for RRIRFRPPRLPRPRPRPRHEPRP: 0.197; for RRIRPRPPRLPRPRPRPCDVPRP: -0.155; for RRIRKRPPRLPRPRPRPCLLPRP: -0.037.
The same measure for RRIRGRPPRLPRPRPRPCYVPRP: -0.0858.
The same measure for RRIRGRPPRLPRPRPRPMPFPRP: 0.118; for RRIRFRPPRLPRPRPRPKTFPRP: -0.18; for RRIRRRPPRLPRPRPRPCETPRP: 0.0583.
Turning to RRIRPRPPRLPRPRPRPLHGPRP, the “shrunken log2 fold change” value was found to be 0.0827.
The same measure for RRIRPRPPRLPRPRPRPSCRPRP: -0.129; for RRIRSRPPRLPRPRPRPIRTPRP: -0.207; for RRIRWRPPRLPRPRPRPWFDPRP: 2.76.
The same measure for RRIRVRPPRLPRPRPRPLWMPRP: -0.523; for RRIRTRPPRLPRPRPRPMWSPRP: -0.0629.
The same measure for RRIRMRPPRLPRPRPRPNNNPRP: -0.134; for RRIRWRPPRLPRPRPRPAEPPRP: 0.256; for RRIRTRPPRLPRPRPRPKIKPRP: -0.561.
Regarding RRIRFRPPRLPRPRPRPFMCPRP, the “shrunken log2 fold change” value was -0.98.
Take RRIRYRPPRLPRPRPRPLLFPRP: the “shrunken log2 fold change” value was -0.614.
The same measure for RRIRIRPPRLPRPRPRPQLSPRP: -0.565; for RRIRRRPPRLPRPRPRPDELPRP: 0.614; for RRIRARPPRLPRPRPRPQVGPRP: 0.391.
The same measure for RRIRGRPPRLPRPRPRPADGPRP: -0.133; for RRIRARPPRLPRPRPRPWCEPRP: 0.404.
The same measure for RRIRVRPPRLPRPRPRPITTPRP: -0.304; for RRIRCRPPRLPRPRPRPELKPRP: 0.0478; for RRIRWRPPRLPRPRPRPGETPRP: 0.174.
Regarding RRIRPRPPRLPRPRPRPARAPRP, the “shrunken log2 fold change” value came to 0.438.
The same measure for RRIRFRPPRLPRPRPRPGGHPRP: -0.00918.
The same measure for RRIRYRPPRLPRPRPRPVHPPRP: -0.186.
The same measure for RRIRFRPPRLPRPRPRPCYMPRP: 1.54; for RRIRQRPPRLPRPRPRPSCMPRP: -0.508; for RRIRGRPPRLPRPRPRPFPEPRP: 0.56.
Turning to RRIRYRPPRLPRPRPRPHKWPRP, the “shrunken log2 fold change” value was -0.581.
The same measure for RRIRWRPPRLPRPRPRPMLMPRP: -0.0339; for RRIRGRPPRLPRPRPRPWFEPRP: -0.111; for RRIRYRPPRLPRPRPRPVNHPRP: -0.073.
The same measure for RRIRMRPPRLPRPRPRPWYAPRP: -0.475; for RRIRMRPPRLPRPRPRPDMPPRP: -0.0178; for RRIRGRPPRLPRPRPRPPCHPRP: 0.429.
The same measure for RRIRSRPPRLPRPRPRPNLDPRP: -0.0975.
As for RRIRIRPPRLPRPRPRPRPEPRP, the “shrunken log2 fold change” value was determined as 0.11.
The same measure for RRIRERPPRLPRPRPRPDCCPRP: -0.157.
The same measure for RRIRFRPPRLPRPRPRPPTKPRP: 0.709; for RRIRDRPPRLPRPRPRPRYNPRP: -0.513; for RRIRWRPPRLPRPRPRPDEAPRP: 0.0325.
The same measure for RRIRRRPPRLPRPRPRPNMTPRP: -0.136; for RRIRRRPPRLPRPRPRPFQNPRP: 0.0537; for RRIRNRPPRLPRPRPRPNRHPRP: -0.17.
Consider RRIRWRPPRLPRPRPRPQPMPRP, for which the “shrunken log2 fold change” value was 0.145.
Turning to RRIRQRPPRLPRPRPRPWHNPRP, the “shrunken log2 fold change” value was -0.385.
The same measure for RRIRIRPPRLPRPRPRPQTFPRP: -0.156; for RRIRTRPPRLPRPRPRPVHPPRP: -0.579; for RRIRVRPPRLPRPRPRPLPQPRP: 0.216.
The same measure for RRIRVRPPRLPRPRPRPRKLPRP: -0.0444.
Regarding RRIRVRPPRLPRPRPRPWPWPRP, the “shrunken log2 fold change” value was 0.197.
The same measure for RRIRFRPPRLPRPRPRPDSIPRP: -0.0087; for RRIRMRPPRLPRPRPRPIVWPRP: -0.0994; for RRIRERPPRLPRPRPRPPDCPRP: 0.0792.
The same measure for RRIRMRPPRLPRPRPRPVNWPRP: 0.223.
Turning to RRIRDRPPRLPRPRPRPGYMPRP, the “shrunken log2 fold change” value was -0.649.
The same measure for RRIRNRPPRLPRPRPRPQCIPRP: -0.135; for RRIRHRPPRLPRPRPRPIWCPRP: -0.0133.
The same measure for RRIRDRPPRLPRPRPRPFDYPRP: -0.224; for RRIRWRPPRLPRPRPRPSGGPRP: 2.77.
The same measure for RRIRRRPPRLPRPRPRPRMLPRP: 0.486; for RRIRVRPPRLPRPRPRPTFLPRP: -0.0973; for RRIRIRPPRLPRPRPRPECMPRP: -0.428.
Take RRIRNRPPRLPRPRPRPWQKPRP: the “shrunken log2 fold change” value was -0.18.
In the case of RRIRPRPPRLPRPRPRPQIVPRP, the “shrunken log2 fold change” value is -0.594.
The same measure for RRIRSRPPRLPRPRPRPQPWPRP: 0.366; for RRIRFRPPRLPRPRPRPWQEPRP: -0.2.
The same measure for RRIRMRPPRLPRPRPRPTYQPRP: -0.063.
The same measure for RRIRERPPRLPRPRPRPCCFPRP: -0.248.
On to RRIRMRPPRLPRPRPRPGDLPRP, for which the “shrunken log2 fold change” value was -0.0671.
Take RRIRWRPPRLPRPRPRPWGWPRP: the “shrunken log2 fold change” value was determined as 0.276.
With RRIRQRPPRLPRPRPRPFFLPRP, the “shrunken log2 fold change” value was -0.376.
The same measure for RRIRHRPPRLPRPRPRPKAKPRP: 0.00599; for RRIRQRPPRLPRPRPRPLRGPRP: 0.664; for RRIRVRPPRLPRPRPRPYSRPRP: -0.0134.
The same measure for RRIRRRPPRLPRPRPRPKFLPRP: 0.133; for RRIRIRPPRLPRPRPRPSGDPRP: -0.742.
The same measure for RRIRDRPPRLPRPRPRPEHNPRP: 0.14; for RRIRERPPRLPRPRPRPWHKPRP: -0.236.
RRIRRRPPRLPRPRPRPGWSPRP: the “shrunken log2 fold change” value turned out to be 0.472.
The same measure for RRIRNRPPRLPRPRPRPLVHPRP: 0.0443; for RRIRARPPRLPRPRPRPMQDPRP: 0.188.
The same measure for RRIRARPPRLPRPRPRPVEQPRP: 0.446; for RRIRFRPPRLPRPRPRPREVPRP: 0.199.
The same measure for RRIRMRPPRLPRPRPRPAAPPRP: 1.65; for RRIRGRPPRLPRPRPRPGTPPRP: 0.919; for RRIRERPPRLPRPRPRPQWGPRP: -0.252.
For the sequence RRIRPRPPRLPRPRPRPGTAPRP, the “shrunken log2 fold change” value came to 0.163.
The same measure for RRIRARPPRLPRPRPRPVPMPRP: 0.404; for RRIRERPPRLPRPRPRPNPCPRP: -0.226.
The same measure for RRIRWRPPRLPRPRPRPKKIPRP: 0.0449; for RRIRQRPPRLPRPRPRPAQYPRP: -0.0388.
The same measure for RRIRCRPPRLPRPRPRPDWTPRP: -0.268; for RRIRERPPRLPRPRPRPRFWPRP: 0.549.
For RRIRCRPPRLPRPRPRPVAPPRP, the “shrunken log2 fold change” value was determined as 0.436.
The same measure for RRIRTRPPRLPRPRPRPAFWPRP: 0.26; for RRIRNRPPRLPRPRPRPQEPPRP: 0.084; for RRIRHRPPRLPRPRPRPCQIPRP: -0.0122.
Take RRIRIRPPRLPRPRPRPVIYPRP: the “shrunken log2 fold change” value is -0.695.
The same measure for RRIRGRPPRLPRPRPRPQQLPRP: 0.487; for RRIRQRPPRLPRPRPRPEYSPRP: -0.191.
The same measure for RRIRKRPPRLPRPRPRPVSIPRP: -0.0178.
Regarding RRIRQRPPRLPRPRPRPQRVPRP, the “shrunken log2 fold change” value is -0.182.
The same measure for RRIRTRPPRLPRPRPRPSGVPRP: 0.00112; for RRIRNRPPRLPRPRPRPYPQPRP: -0.138.
On to RRIRMRPPRLPRPRPRPINFPRP, for which the “shrunken log2 fold change” value was -0.0648.
The same measure for RRIRDRPPRLPRPRPRPPWEPRP: 0.0453; for RRIRDRPPRLPRPRPRPPNAPRP: 0.617.
Consider RRIRKRPPRLPRPRPRPKQPPRP, for which the “shrunken log2 fold change” value was -0.0354.
The same measure for RRIRHRPPRLPRPRPRPCFLPRP: -0.0717.

For the origin of these results see the supplement of paper PMC9112550, “Optimization of the antimicrobial peptide Bac7 by deep mutational scanning” (BMC Biology, 2022).
